This is an account of results in patent US20250282879A1 (CILAG GMBH INTERNATIONAL, published 2025).

In test [1] the target is T1, human IL-4R (form not stated) (human, UniProt P24394 26-232, limits assumed).
T1 construct: whole entry named; also called hIL-4R
Description: competition ELISA, hIL-4/IL-4R. The protocol:
Potency of the optimized anti-IL-4R scFvs PRO1898 and PRO1899 scFvs was determined using a competitive ELISA. The potency of each scFv to inhibit the interaction between human IL-4 and human IL-4R was assessed by ELISA as described in section 1.2.2. Similarly, to the stat-6 reporter gene assay, individual IC₅₀ values on each plate were calibrated against the IC₅₀ of the reference molecule dupilumab.

Test [2] has as its target T2, Human IL-4R-Fc (human, UniProt P24394 26-232).
T2 construct: also called human IL-4R (scFv SPR, capture setup); not shown: Fc part
Nature of the test: SPR, hIL-4R-Fc captured, scFv analyte. As for the experimental part: (§1) Affinity of the optimized anti-IL-4R scFvs PRO1898 and PRO1899 to human IL-4R was determined by SPR analysis on a T200 device (Biacore, GE Healthcare), as described above in section 1.2.2. The scFvs were measured using a dose response multi-cycle kinetic assay with seven analyte concentrations ranging from 0.12 to 90 nM diluted in running buffer. Obtained sensorgrams were fitted using a 1:1 binding model.

A further test deals with T3, cynomolgus IL-4R-Fc (cynomolgus monkey (Macaca fascicularis), UniProt A0A2K5V580 33-239).
T3 construct: also called cynomolgus IL-4R capture setup; not shown: Fc part
Nature of the test: SPR, capture setup, cynomolgus IL-4R-Fc captured. As for the experimental part:
as §1
Affinity of the optimized anti-IL-4R scFvs PRO1898 and PRO1899 to cynomolgus IL-4R was measured using the same setup as for the analysis of human IL-4R affinities, with the difference that cynomolgus IL-4R-Fc was captured instead of human IL-4R-Fc, as described above in section 1.2.2.
On the technique in general: SPR reads the build-up and loss of mass on a sensor chip optically.

In test [3] the target is T4, human IL-4R on cells (HEK-Blue IL-4/IL-13 cells, human PBMC, human whole blood) (human, UniProt P24394 26-825). Description: cell-based or functional assay.
Test [4] has as its target T4, human IL-4R on cells (HEK-Blue …). Nature of the test: cell-based or functional assay. The source holds these as a separate data set.
Test [5] shares this target. Nature of the test: cell-based or functional assay. This is another data set of the same source.
For test [6], the target named is T5, recombinant human IL-31 protein (Peprotech) (human, UniProt Q6EBC2 24-164).
T5 sequence (looked up): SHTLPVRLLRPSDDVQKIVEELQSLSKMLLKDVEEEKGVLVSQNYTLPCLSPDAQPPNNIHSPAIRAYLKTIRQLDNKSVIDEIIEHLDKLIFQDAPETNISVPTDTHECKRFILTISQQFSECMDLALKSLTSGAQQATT
Description: cell-based or functional assay.

Test [7] deals with T4, human IL-4R on cells (HEK-Blue …). Nature of the test: cell-based or functional assay. The source holds these as a separate data set.
For test [8], the target named is T5, recombinant human IL-31 protein …. Nature of the test: cell-based or functional assay. This is another data set of the same source.
The target of test [9] is recombinant cynomolgus monkey IL-31 (ECD with His Tag, Sino Biological) (cynomolgus monkey). Nature of the test: cell-based or functional assay.
Test [10] deals with T6, human IL-4R on transfected HEK293T cells (human, UniProt P24394 26-825).
T6 construct: whole, on cells; also called human IL-4R-expressing HEK293T cells; not shown: V5 Tag fused to the N-terminus of the expression construct
Description: flow cytometry, transfected HEK293T cells. From the text: (§2) To test binding of the Morrison-H and Morrison-L antibodies PRO2198, PRO2199, PRO2206 and PRO2207 to human or cynomolgus IL-4R-expressing HEK293T cells, HEK293T cells were transfected with human and cynomolgus IL-4R plasmids and mock plasmid using Lipofectamine3000. Binding of an antibody targeting V5 Tag, which is fused to the N-terminus of human and cynomolgus IL-4R expression constructs, would confirm successful expression of both targets and was thus used as a positive control for plasma membranous binding. The Morrison-H molecule PRO2077 was used as negative control for cynomolgus IL-4R binding since this molecule had not shown any cross-reactivity to cynomolgus IL-4R (see section 5.3.).
(§3) 50,000 transfected HEK293T cells per well were seeded in a 96-well plate. 5-fold serial dilutions of the Morrison-H and Morrison-L antibodies PRO2198, PRO2199, PRO2206 and PRO2207 and of the control molecule PRO2077, which is not cross-reactive to cynomolgus IL-4R, were added at concentrations ranging from 5,000 to 0.32 ng/ml to the plates and incubated for 60 min at 4° C. on a shaker. Supernatants were removed and detection reagent was added for flow cytometry analysis. The geometric mean of the APC fluorescence intensity of single cells was calculated.
On the technique in general: A flow cytometer gives signals particle by particle.

The target in test [11] is T7, cynomolgus IL-4R on transfected HEK293T cells (cynomolgus monkey, UniProt A0A2K5V580 33-832).
T7 construct: whole, on cells; also called cynomolgus IL-4R-expressing HEK293T cells; not shown: V5 Tag fused to the N-terminus of the expression construct
T7 sequence (A0A2K5V580 entry or part of it): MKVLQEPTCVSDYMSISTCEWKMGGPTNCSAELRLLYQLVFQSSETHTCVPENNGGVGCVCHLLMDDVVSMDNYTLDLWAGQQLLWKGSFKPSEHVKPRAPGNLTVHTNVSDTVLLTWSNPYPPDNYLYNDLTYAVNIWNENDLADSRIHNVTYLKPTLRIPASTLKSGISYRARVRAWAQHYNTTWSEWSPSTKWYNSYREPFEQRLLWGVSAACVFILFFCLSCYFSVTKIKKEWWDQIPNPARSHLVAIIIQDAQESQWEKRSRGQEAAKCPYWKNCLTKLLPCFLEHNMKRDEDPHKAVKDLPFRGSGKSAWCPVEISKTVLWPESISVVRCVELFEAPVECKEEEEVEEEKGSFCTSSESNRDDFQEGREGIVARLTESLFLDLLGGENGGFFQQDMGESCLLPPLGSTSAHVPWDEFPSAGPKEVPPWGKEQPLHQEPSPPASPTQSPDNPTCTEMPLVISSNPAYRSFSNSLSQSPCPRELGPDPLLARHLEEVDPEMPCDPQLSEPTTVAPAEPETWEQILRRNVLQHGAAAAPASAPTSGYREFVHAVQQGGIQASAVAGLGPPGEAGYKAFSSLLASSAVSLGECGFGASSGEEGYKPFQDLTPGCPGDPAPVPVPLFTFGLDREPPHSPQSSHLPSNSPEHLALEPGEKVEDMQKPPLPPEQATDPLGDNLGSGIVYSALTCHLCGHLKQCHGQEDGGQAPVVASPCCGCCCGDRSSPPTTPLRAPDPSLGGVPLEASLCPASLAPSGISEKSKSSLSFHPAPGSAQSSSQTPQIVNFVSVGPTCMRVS
Nature of the test: flow cytometry, transfected HEK293T cells.
From the text: as §2, §3

Test [12] deals with T8, recombinant human IL-4R protein (ECD with His Tag, Sino Biological) (human, UniProt P24394 26-232).
T8 construct: extracellular domain; bought; also called human IL-4R ECD; not shown: His Tag
Description: SPR, Morrison captured via anti-human IgG-Fc, IL-4R ECD-His analyte. The protocol:
(§4) Binding kinetics (including affinity) of the bispecific Morrison-H (PRO2198, PRO2199) and Morrison-L (PRO2206, PRO2207) molecules to recombinant human IL-4R protein (ECD with His Tag, Sino Biological) were determined by SPR analysis on a T200 device (Biacore, Cytiva). In this SPR experiment, Morrison molecules were captured via an anti-human IgG-Fc antibody (Human Antibody Capture Kit; Biacore, Cytiva) covalently immobilized to a carboxylmethylated dextran surface (CM5 sensorchip; Biacore, Cytiva) and a titration series of human IL-4R ECD was injected as analyte. After each analyte injection cycle, the sensor chip was regenerated (MgCl₂), and new Morrison antibody was subsequently re-captured. […] The apparent dissociation (kd) and association (kₐ) rate constants and the apparent dissociation equilibrium constant (KD) were calculated with the Biacore analysis software (Biacore Evaluation software Version 3.2, Cytiva) using one-to-one Langmuir binding model and quality of the fits was monitored based on Chi2 and U-value, which are measures for the quality of the curve fitting. The binding level was calculated as the maximum stability binding achieved normalized to the theoretical Rmax. Cross-reactivity to cynomolgus monkey IL-4R was measured using the same setup as for the analysis of human IL-4R kinetics, with the difference that recombinant cynomolgus monkey IL-4R (ECD with His-tag, Acro Biosystems) protein was used as analyte instead of human IL-4R.

The target of test [13] is T9, recombinant cynomolgus monkey IL-4R (ECD with His-tag, Acro Biosystems) (cynomolgus monkey, UniProt A0A2K5V556 26-232).
T9 construct: bought; also called cynomolgus IL-4R
T9 sequence (A0A2K5V556 entry or part of it limits assumed): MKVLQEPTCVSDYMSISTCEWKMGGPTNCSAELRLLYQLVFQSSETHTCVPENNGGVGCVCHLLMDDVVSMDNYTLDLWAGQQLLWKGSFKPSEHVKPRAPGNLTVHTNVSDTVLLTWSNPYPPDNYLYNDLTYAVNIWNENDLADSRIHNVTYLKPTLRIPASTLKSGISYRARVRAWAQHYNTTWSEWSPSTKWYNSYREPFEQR
Described as above. The protocol:
as §4

Test [14] concerns the target T4, human IL-4R on cells (HEK-Blue …). Description: cell-based or functional assay. This is another data set of the same source.
Test [15] deals with T2, Human IL-4R-Fc. Description: SPR, hIL-4R-Fc captured, scFv analyte. This is another data set of the same source.
A further test addresses T10, marmoset IL-4R ECD (marmoset (Callithrix jacchus), UniProt Q0PIT7 26-232).
T10 construct: immobilized directly on the sensor chip; also called marmoset monkey IL-4R
Description: SPR, direct setup, marmoset IL-4R ECD immobilized.

One may read the IC50 as the point on the concentration scale where inhibition reaches its midpoint. In general, Kd refers to a measure of binding affinity in units of concentration. One may read the koff as the rate constant with which the complex falls apart. As usually defined, the kon is the second-order rate constant of association. By EC50 is commonly meant the midpoint of the concentration-response curve.

Like-named read-outs stand apart in the source and are kept apart here. A value given as a limit tells only on which side of the number the result lay.

T10 sequence (Q0PIT7 entry or part of it limits assumed): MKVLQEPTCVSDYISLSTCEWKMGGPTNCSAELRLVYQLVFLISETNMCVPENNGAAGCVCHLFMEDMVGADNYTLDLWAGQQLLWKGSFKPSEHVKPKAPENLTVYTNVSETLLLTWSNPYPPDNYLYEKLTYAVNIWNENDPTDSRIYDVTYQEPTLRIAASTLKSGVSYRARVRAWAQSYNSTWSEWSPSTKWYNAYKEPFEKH

B1: PRO1898 (scFv, V domains shown)
VH: EVQLVESGGGLVQPGGSLRLSCAASGFSSSSAHYMCWVRQAPGKGLEWIGCIYAGSRGSTYYASWAKGRFTISRDNSKNTVYLQMNSLRAEDTAVYYCARAAFVNRGVSWIWPYYFSLWGQGTLVTVSS
VL: DIQMTQSPSSLSARVGDRVTITCQASEDIESYLAWYQQKPGKAPKLLIYRASTLAYGVPSRFSGSGSGRDFTLTISSLQPEDFATYYCLGSSYSTGSNIFGTGTKVTVLG
notes: scFv; VL entry ends with LCDR3 (no FR4); also called 44-34-C10-sc08
Regarding B1, the IC50 in [1] came out at 3.41 ng/mL. Besides, in the test with Human IL-4R-Fc [2], the Kd came to 0.00791 nM, the koff worked out at 1.7e-05 s⁻¹ and the kon stood at 2.15e+06 M⁻¹ s⁻¹. For the same molecule, in the test with cynomolgus IL-4R-Fc, the Kd was found to be 0.0908 nM, the koff turned out to be 0.000109 s⁻¹ and the kon stood at 1.2e+06 M⁻¹ s⁻¹.

B2: PRO1899 (scFv, V domains shown)
VH: EVQLVESGGGRVQPGGSLRLSCAASGFSSSSAHYMCWVRQAPGKGLEWIGCIYAGSRGSTYYASWAKGRFTISKASSTTVYLQMNSLRAEDTATYYCARAAFVNRGVSWIWPYYFSLWGQGTQVTVSS
VL: DIQMTQSPSSLSASVGDRVTITCQASEDIESYLAWYQQKPGKAPKLLIYRASTLAYGVPSRFSGSGSGTDFTLTISSLQPEDFATYYCLGSSYSTGSNIFGTGTKVTVLG
notes: scFv; VL entry ends with LCDR3 (no FR4); also called 44-34-C10-sc09
B2 gave an IC50 in test [1] of 2.98 ng/mL. Moreover, in the test with Human IL-4R-Fc [2], the Kd was determined as 0.00692 nM, the koff was 2.04e-05 s⁻¹ and the kon came to 2.95e+06 M⁻¹ s⁻¹. In addition, in the test with cynomolgus IL-4R-Fc, the affinity, expressed as Kd, was 0.012 nM; the koff is 0.00014 s⁻¹; the kon turned out to be 1.1e+07 M⁻¹ s⁻¹.

B3: PRO2199 (bispecific antibody, human IgG4 S228P, kappa)
light: DIQMTQSPSSLSASVGDRVTITCQASEDIESYLAWYQQKPGKAPKLLIYRASTLAYGVPSRFSGSGSGTDFTLTISSLQPEDFATYYCLGSSYSTGSNIFGQGTKVEIKRTVAAPSVFIFPPSDEQLKSGTASVVCLLNNFYPREAKVQWKVDNALQSGNSQESVTEQDSKDSTYSLSSTLTLSKADYEKHKVYACEVTHQGLSSPVTKSFNRGEC
heavy: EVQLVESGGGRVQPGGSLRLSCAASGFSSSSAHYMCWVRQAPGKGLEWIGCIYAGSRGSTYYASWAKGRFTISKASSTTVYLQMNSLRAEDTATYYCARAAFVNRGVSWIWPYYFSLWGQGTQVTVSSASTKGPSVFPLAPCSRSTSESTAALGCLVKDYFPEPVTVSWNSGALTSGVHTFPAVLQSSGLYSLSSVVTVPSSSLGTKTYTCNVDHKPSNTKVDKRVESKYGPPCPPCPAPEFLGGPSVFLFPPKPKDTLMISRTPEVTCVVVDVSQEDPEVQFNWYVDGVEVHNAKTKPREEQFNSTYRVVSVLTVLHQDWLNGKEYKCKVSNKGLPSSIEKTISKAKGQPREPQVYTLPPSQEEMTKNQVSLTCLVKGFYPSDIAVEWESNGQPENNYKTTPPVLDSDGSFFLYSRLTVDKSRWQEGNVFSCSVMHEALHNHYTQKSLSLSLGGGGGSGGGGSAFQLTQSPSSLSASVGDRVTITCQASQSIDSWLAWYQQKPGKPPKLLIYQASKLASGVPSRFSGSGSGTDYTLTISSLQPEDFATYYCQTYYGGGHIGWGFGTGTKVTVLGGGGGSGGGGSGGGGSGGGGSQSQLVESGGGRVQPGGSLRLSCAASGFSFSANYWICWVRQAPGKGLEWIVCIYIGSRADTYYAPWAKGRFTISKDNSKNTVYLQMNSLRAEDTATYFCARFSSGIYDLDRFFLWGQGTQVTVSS
notes: IgG4 (S228P) Morrison-H; also called Morrison-H; MorrH
Regarding B3, the “IC50, IL-4-induced TARC secretion in human whole blood” value in test [3] was under 0.5 nM. The “Mean IC50, human IL-4-induced signaling, stat-6 reporter gene assay” value in test [4] turned out to be 0.0115 nM. Further, in test [5], the “IC50 (single analysis), human IL-13-induced signaling, stat-6 reporter gene assay” value turned out to be 0.0113 nM. In [6], the “Mean IC50, human IL-31-induced signaling, IL-31RA/OSMR dimerization assay” value turned out to be 0.142 nM. In addition, in test [7], the “IC50, IL-4-induced CD23 expression, memory B cells” value worked out at 2.53 nM; the “IC50, IL-4-induced CD23 expression, monocytes (blood donor 1)” value was determined as 0.0697 nM; the “IC50, IL-4-induced CD23 expression, naive B cells” value stood at 1.1 nM. Further, in test [8], the “IC50 (read off the curve), human IL-31-induced IL-31RA/OSMR dimerization, with an excess of IL-4R extracellular domain in the medium” value is about 0.1 nM. Further, the “IC50, cynomolgus IL-31-induced IL-31RA/OSMR dimerization (RLU) [table under the graph]” value in test [9] was found to be 1.21 nM. In test [10], the EC50 came to 0.85 nM. The molecule further registered an EC50 in test [11] of 1.78 nM. In test [12], the Kd worked out at 0.197 nM, the koff was determined as 5.76e-05 s⁻¹ and the kon is 293000 M⁻¹ s⁻¹. For the same molecule, in test [13], the Kd came to 0.0351 nM, the koff was 3.44e-05 s⁻¹ and the kon was determined as 980000 M⁻¹ s⁻¹.

B4: PRO1535 (scFv)
chain: DIQMTQSPSSLSASVGDRVTITCQASEDIESYLAWYQQKPGKPPKLLIYRASTLAYGVPSRFSGSGSGTDFTLTISSLQPEDFATYYCLGSSYSTGSNIFGTGTKVTVLGGGGGSGGGGSGGGGSGGGGSESQLVESGGGLVQPGGSLRLSCAASGFSSSSAHYMCWVRQAPGKGLEWIACIYAGSRGSTYYASWAKGRFTISKDNSKNTVYLQMNSLRAEDTAVYFCARAAFVNRGVSWIWPYYFSLWGQGTLVTVSS
Consider B4, for which, in test [14], the “IC50, neutralization of hIL-4-induced signaling, stat-6 reporter gene assay” value came to 1.15 ng/mL and the “IC50, neutralization of hIL-13-induced signaling, stat-6 reporter gene assay” value worked out at 2.3 ng/mL. Further, in the test with Human IL-4R-Fc [15], the affinity, expressed as Kd, was 0.0199 nM; the koff came out at 5.42e-05 s⁻¹; the kon amounted to 2.72e+06 M⁻¹ s⁻¹. In the test with marmoset IL-4R ECD, this molecule registered a Kd of 0.787 nM, a koff of 0.00254 s⁻¹ and a kon of 3.23e+06 M⁻¹ s⁻¹.
